In publication PMC4313731 (Chemistry & biology, 2013):

Legend:
PhnY = PhnY (Sinorhizobium meliloti, UniProt Q92UV7); experiment: X-ray crystal structure of ternary complex with NAD+, […] Å; type: binding; details: NAD+ bound; active site, non-covalent
[1] = substrate: O=CCCP(=O)(O)O; experiment: steady-state kinetics, NADP+ reduction monitored; type: biochemical, Streptococcus mutans; details: saturating NADP+, 50 mM HEPES pH 8.0, 5 mM DTT
[2] = substrate: O=CC(O)COP(=O)(O)O; experiment: steady-state kinetics, NADP+ reduction monitored; type: biochemical, Streptococcus mutans; details: racemic G3P, saturating NADP+, 50 mM HEPES pH 8.0, 5 mM DTT
[3] = substrate: O=CCP(=O)(O)O; experiment: steady-state kinetics, NAD+ reduction monitored; type: biochemical, Sinorhizobium meliloti; details: saturating NAD+, 50 mM HEPES pH 7.5, 10 mM MgSO4, 30 °C
[4] = substrate: O=CCCP(=O)(O)O; experiment: steady-state kinetics, NAD+ reduction monitored; type: biochemical, Sinorhizobium meliloti; details: 50 mM HEPES pH 7.5, 10 mM MgSO4, 30 °C

Molecule | Km [3] | kcat [3] | further results
O=C(O)CP(=O)(O)O [PnA] | – | – | X-ray crystal structure of ternary complex with NAD+, 2.07 Å (PhnY): cocrystal structure of PhnY in complex with NAD^+ and PnA shows clear and continuous density
GAPDH (Streptococcus mutans UA159) (protein) MTKQYKNYVNGEWKLSENEIKIYEPASGAELGSVPAMSTEEVDYVYASAKKAQPAWRSLSYIERAAYLHKVADILMRDKEKIGAVLSKEVAKGYKSAVSEVVRTAEIINYAAEEGLRMEGEVLEGGSFEAASKKKIAVVRREPVGLVLAISPFNYPVNLAGSKIAPALIAGNVIAFKPPTQGSISGLLLAEAFAEAGLPAGVFNTITGRGSEIGDYIVEHQAVNFINFTGSTGIGERIGKMAGMRPIMLELGGKDSAIVLEDADLELTAKNIIAGAFGYSGQRCTAVKRVLVMESVADELVEKIREKVLALTIGNPEDDADITPLIDTKSADYVEGLINDANDKGAAALTEIKREGNLICPILFDKVTTDMRLAWEEPFGPVLPIIRVTSVEEAIEISNKSEYGLQASIFTNDFPRAFGIAEQLEVGTVHINNKTQRGTDNFPFLGAKKSGAGIQGVKYSIEAMTTVKSVVFDIK | – | – | Km [1]: 1500 ± 300 µM; kcat [1]: 0.038 ± 0.022 s⁻¹; Km [2]: 25 ± 7 µM; kcat [2]: 22 ± 2 s⁻¹
PhnY (Sinorhizobium meliloti 1021; R447A) (protein) MTNAEVTIAVRHEPMRIAGRLVDTDDRVEVRYPWNDTVVGTVPAGRAEHAREAFAIAAAYQPKLTRYERQKILLATAEALAARKEEISDVITLELGISKADSLYEVGRAFDVFTLAGQMCIRDDGEIFSCDLTPHGKARKIFTMREPLTAISAITPFNHPLNMVAHKVAPAIATNNCVVVKPTELTPMTALLLADILYEAGLPPEMLSVVTGWPADIGMEMITNPHVDLVTFTGSVPVGKLIAANAHYKRQVLELGGNDPLIILNDLSDDDLARAADLAVAGATKNSGQRCTAVKRILCQESVADRFVPLVLERAKRLRFGDPMDRSTDLGTVIHEKAAALFEERVMRAAEEGADILYHPGRSGALLPPIVVDRVPHQSDLVLEETFGPIIPIVRVPDDDDATITLSNSTAFGLSSGVCTNDYRRMQKYIAGLKVGTVNIWEVPGYAIEMSPFGGIKDSGNGYKEGVIEAMKSFTNVKTFSLPWP | 150 ± 20 µM | 0.076 ± 0.003 s⁻¹ | –
PhnY (Sinorhizobium meliloti 1021; R290A) (protein) MTNAEVTIAVRHEPMRIAGRLVDTDDRVEVRYPWNDTVVGTVPAGRAEHAREAFAIAAAYQPKLTRYERQKILLATAEALAARKEEISDVITLELGISKADSLYEVGRAFDVFTLAGQMCIRDDGEIFSCDLTPHGKARKIFTMREPLTAISAITPFNHPLNMVAHKVAPAIATNNCVVVKPTELTPMTALLLADILYEAGLPPEMLSVVTGWPADIGMEMITNPHVDLVTFTGSVPVGKLIAANAHYKRQVLELGGNDPLIILNDLSDDDLARAADLAVAGATKNSGQACTAVKRILCQESVADRFVPLVLERAKRLRFGDPMDRSTDLGTVIHEKAAALFEERVMRAAEEGADILYHPGRSGALLPPIVVDRVPHQSDLVLEETFGPIIPIVRVPDDDDATITLSNSTAFGLSSGVCTNDYRRMQKYIAGLKVGTVNIWEVPGYRIEMSPFGGIKDSGNGYKEGVIEAMKSFTNVKTFSLPWP | 5.1 ± 0.6 µM | 0.12 ± 0.003 s⁻¹ | –
PhnY (Sinorhizobium meliloti 1021; N158A) (protein) MTNAEVTIAVRHEPMRIAGRLVDTDDRVEVRYPWNDTVVGTVPAGRAEHAREAFAIAAAYQPKLTRYERQKILLATAEALAARKEEISDVITLELGISKADSLYEVGRAFDVFTLAGQMCIRDDGEIFSCDLTPHGKARKIFTMREPLTAISAITPFAHPLNMVAHKVAPAIATNNCVVVKPTELTPMTALLLADILYEAGLPPEMLSVVTGWPADIGMEMITNPHVDLVTFTGSVPVGKLIAANAHYKRQVLELGGNDPLIILNDLSDDDLARAADLAVAGATKNSGQRCTAVKRILCQESVADRFVPLVLERAKRLRFGDPMDRSTDLGTVIHEKAAALFEERVMRAAEEGADILYHPGRSGALLPPIVVDRVPHQSDLVLEETFGPIIPIVRVPDDDDATITLSNSTAFGLSSGVCTNDYRRMQKYIAGLKVGTVNIWEVPGYRIEMSPFGGIKDSGNGYKEGVIEAMKSFTNVKTFSLPWP | 29 ± 9 µM | 0.010 ± 0.001 s⁻¹ | –
PhnY (Sinorhizobium meliloti 1021) (protein) MTNAEVTIAVRHEPMRIAGRLVDTDDRVEVRYPWNDTVVGTVPAGRAEHAREAFAIAAAYQPKLTRYERQKILLATAEALAARKEEISDVITLELGISKADSLYEVGRAFDVFTLAGQMCIRDDGEIFSCDLTPHGKARKIFTMREPLTAISAITPFNHPLNMVAHKVAPAIATNNCVVVKPTELTPMTALLLADILYEAGLPPEMLSVVTGWPADIGMEMITNPHVDLVTFTGSVPVGKLIAANAHYKRQVLELGGNDPLIILNDLSDDDLARAADLAVAGATKNSGQRCTAVKRILCQESVADRFVPLVLERAKRLRFGDPMDRSTDLGTVIHEKAAALFEERVMRAAEEGADILYHPGRSGALLPPIVVDRVPHQSDLVLEETFGPIIPIVRVPDDDDATITLSNSTAFGLSSGVCTNDYRRMQKYIAGLKVGTVNIWEVPGYRIEMSPFGGIKDSGNGYKEGVIEAMKSFTNVKTFSLPWP | – | – | Km [4]: 3300 ± 100 µM; kcat [4]: 1.5 ± 0.1 s⁻¹
PhnY (Sinorhizobium meliloti 1021; R108A) (protein) MTNAEVTIAVRHEPMRIAGRLVDTDDRVEVRYPWNDTVVGTVPAGRAEHAREAFAIAAAYQPKLTRYERQKILLATAEALAARKEEISDVITLELGISKADSLYEVGAAFDVFTLAGQMCIRDDGEIFSCDLTPHGKARKIFTMREPLTAISAITPFNHPLNMVAHKVAPAIATNNCVVVKPTELTPMTALLLADILYEAGLPPEMLSVVTGWPADIGMEMITNPHVDLVTFTGSVPVGKLIAANAHYKRQVLELGGNDPLIILNDLSDDDLARAADLAVAGATKNSGQRCTAVKRILCQESVADRFVPLVLERAKRLRFGDPMDRSTDLGTVIHEKAAALFEERVMRAAEEGADILYHPGRSGALLPPIVVDRVPHQSDLVLEETFGPIIPIVRVPDDDDATITLSNSTAFGLSSGVCTNDYRRMQKYIAGLKVGTVNIWEVPGYRIEMSPFGGIKDSGNGYKEGVIEAMKSFTNVKTFSLPWP | 9.7 ± 0.8 µM | 0.051 ± 0.001 s⁻¹ | –
